Measured values as given in US20240360227A1.
Where a chain is given by its changes, count along the chain named.

What was measured:
[1] = molecular target: Recombinant human his-tagged IGF R extracellular domain protein (human) (UniProt P08069); assay: SPR, Ab captured via anti-huIgG Fc, dissociation at pH 6
[2] = molecular target: Recombinant human his-tagged IGF R extracellular domain protein (human) (UniProt P08069); assay: SPR, Ab captured via anti-huIgG Fc, pH 7.4

B1: VRDN-02005 (antibody, V domains shown)
VH: QVQLQESGPGLVKPSETLSLTCTVSGYSIHGGYLWNWIRQPPGKGLEWIGYISYDGTNNYKPSLKDRVTISRDTSKNQFSLKLSSVTAADTAVYYCARYGRVFFDYWGQGTLVTVSS
VL: DIVMTQSPLSLPVTPGEPASISCRSSQSIVHSNGNTYLQWYLQKPGQSPQLLIYKVSNRLYGVPDRFSGSGSGTDFTLKISRVEAEDVGVYYCFQGSHVPWTFGQGTKVEIK
Kd [1]: 1.16 nM | koff [1]: 0.000119 s⁻¹ | kon [1]: 102000 M⁻¹ s⁻¹ | Kd [2]: 0.71 nM | koff [2]: 6.09e-05 s⁻¹ | kon [2]: 85800 M⁻¹ s⁻¹

B2: VRDN-02053 (antibody, V domains shown)
VH: B1 VH with H30T
VL: B1 VL with G96H
Kd [1]: 3.48 nM | koff [1]: 0.000193 s⁻¹ | kon [1]: 55600 M⁻¹ s⁻¹ | Kd [2]: 7.18 nM | koff [2]: 0.00243 s⁻¹ | kon [2]: 338000 M⁻¹ s⁻¹

B3: VRDN-02065 (antibody, V domains shown)
VH: B1 VH with H30T, S53H
VL: B1 VL with P100H
Kd [1]: 0.232 nM | koff [1]: 4.83e-05 s⁻¹ | kon [1]: 208000 M⁻¹ s⁻¹ | Kd [2]: 0.22 nM | koff [2]: 2.54e-05 s⁻¹ | kon [2]: 116000 M⁻¹ s⁻¹

B4: VRDN-02071 (antibody, V domains shown)
VH: B1 VH with H30T, S53H, Y99H
VL: B1 VL with S26H, Q95H
Kd [1]: 0.352 nM | koff [1]: 6.64e-05 s⁻¹ | kon [1]: 189000 M⁻¹ s⁻¹ | Kd [2]: 0.103 nM | koff [2]: 1.09e-05 s⁻¹ | kon [2]: 105000 M⁻¹ s⁻¹

B5: VRDN-02052 (antibody, V domains shown)
VH: B1 VH with H30T
VL: B1 VL with Q95H
Kd [1]: 1.33 nM | koff [1]: 0.000156 s⁻¹ | kon [1]: 117000 M⁻¹ s⁻¹ | Kd [2]: 0.564 nM | koff [2]: 5.7e-05 s⁻¹ | kon [2]: 101000 M⁻¹ s⁻¹

B6: VRDN-02069 (antibody, V domains shown)
VH: B1 VH with H30T, D55H
VL: B1 VL with W101H
Kd [1]: 0.325 nM | koff [1]: 5.59e-05 s⁻¹ | kon [1]: 172000 M⁻¹ s⁻¹ | Kd [2]: 0.137 nM | koff [2]: 1.52e-05 s⁻¹ | kon [2]: 111000 M⁻¹ s⁻¹

B7: VRDN-02064 (antibody, V domains shown)
VH: B1 VH with H30T, Y99H
VL: B1 VL with Q95H
Kd [1]: 0.145 nM | koff [1]: 2.27e-05 s⁻¹ | kon [1]: 157000 M⁻¹ s⁻¹ | Kd [2]: 0.235 nM | koff [2]: 2.48e-05 s⁻¹ | kon [2]: 106000 M⁻¹ s⁻¹

B8: VRDN-02006 (antibody, V domains shown)
VH: B1 VH with H30T, G31H
VL: B1 VL
Kd [1]: 1.1 nM | koff [1]: 0.000101 s⁻¹ | kon [1]: 92300 M⁻¹ s⁻¹ | Kd [2]: 1.08 nM | koff [2]: 8.49e-05 s⁻¹ | kon [2]: 78500 M⁻¹ s⁻¹

B9: VRDN-02070 (antibody, V domains shown)
VH: B1 VH with H30T, Y99H
VL: B1 VL with W101H
Kd [1]: 0.335 nM | koff [1]: 5.29e-05 s⁻¹ | kon [1]: 158000 M⁻¹ s⁻¹ | Kd [2]: 0.322 nM | koff [2]: 3.38e-05 s⁻¹ | kon [2]: 105000 M⁻¹ s⁻¹

B10: VRDN-02066 (antibody, V domains shown)
VH: B1 VH with H30T, D55H
VL: B1 VL with P100H
Kd [1]: 0.296 nM | koff [1]: 5.14e-05 s⁻¹ | kon [1]: 174000 M⁻¹ s⁻¹ | Kd [2]: 0.278 nM | koff [2]: 3.12e-05 s⁻¹ | kon [2]: 112000 M⁻¹ s⁻¹

B11: VRDN-02060 (antibody, V domains shown)
VH: B1 VH with H30T, D55H
VL: B1 VL with S26H
Kd [1]: 0.394 nM | koff [1]: 6.07e-05 s⁻¹ | kon [1]: 154000 M⁻¹ s⁻¹ | Kd [2]: 0.249 nM | koff [2]: 2.77e-05 s⁻¹ | kon [2]: 111000 M⁻¹ s⁻¹

B12: VRDN-02063 (antibody, V domains shown)
VH: B1 VH with H30T, D55H
VL: B1 VL with Q95H
Kd [1]: 0.284 nM | koff [1]: 3.97e-05 s⁻¹ | kon [1]: 140000 M⁻¹ s⁻¹ | Kd [2]: 0.19 nM | koff [2]: 2.11e-05 s⁻¹ | kon [2]: 111000 M⁻¹ s⁻¹

B13: VRDN-02062 (antibody, V domains shown)
VH: B1 VH with H30T, S53H
VL: B1 VL with Q95H
Kd [1]: 0.166 nM | koff [1]: 2.82e-05 s⁻¹ | kon [1]: 170000 M⁻¹ s⁻¹ | Kd [2]: 0.225 nM | koff [2]: 2.13e-05 s⁻¹ | kon [2]: 94300 M⁻¹ s⁻¹

B14: VRDN-02061 (antibody, V domains shown)
VH: B1 VH with H30T, Y99H
VL: B1 VL with S26H
Kd [1]: 0.299 nM | koff [1]: 4.34e-05 s⁻¹ | kon [1]: 145000 M⁻¹ s⁻¹ | Kd [2]: 0.28 nM | koff [2]: 2.65e-05 s⁻¹ | kon [2]: 94700 M⁻¹ s⁻¹

B15: VRDN-02073 (antibody, V domains shown)
VH: B1 VH with H30T, S53H, Y99H
VL: B1 VL with S26H, W101H
Kd [1]: 0.267 nM | koff [1]: 4.77e-05 s⁻¹ | kon [1]: 179000 M⁻¹ s⁻¹ | Kd [2]: 0.261 nM | koff [2]: 3.13e-05 s⁻¹ | kon [2]: 120000 M⁻¹ s⁻¹

B16: VRDN-02072 (antibody, V domains shown)
VH: B1 VH with H30T, S53H, Y99H
VL: B1 VL with S26H, P100H
Kd [1]: 0.269 nM | koff [1]: 5.3e-05 s⁻¹ | kon [1]: 197000 M⁻¹ s⁻¹ | Kd [2]: 0.281 nM | koff [2]: 3.57e-05 s⁻¹ | kon [2]: 127000 M⁻¹ s⁻¹

B17: VRDN-02054 (antibody, V domains shown)
VH: B1 VH with H30T
VL: B1 VL with S97H
Kd [1]: 1.14 nM | koff [1]: 8.07e-05 s⁻¹ | kon [1]: 70700 M⁻¹ s⁻¹ | Kd [2]: 0.838 nM | koff [2]: 6.19e-05 s⁻¹ | kon [2]: 73900 M⁻¹ s⁻¹

B18: VRDN-02068 (antibody, V domains shown)
VH: B1 VH with H30T, S53H
VL: B1 VL with W101H
Kd [1]: 0.376 nM | koff [1]: 6.53e-05 s⁻¹ | kon [1]: 174000 M⁻¹ s⁻¹ | Kd [2]: 0.249 nM | koff [2]: 2.87e-05 s⁻¹ | kon [2]: 115000 M⁻¹ s⁻¹

B19: VRDN-02074 (antibody, V domains shown)
VH: B1 VH with H30T, D55H, Y99H
VL: B1 VL with S26H, Q95H
Kd [1]: 0.25 nM | koff [1]: 5.81e-05 s⁻¹ | kon [1]: 232000 M⁻¹ s⁻¹ | Kd [2]: 0.301 nM | koff [2]: 3.98e-05 s⁻¹ | kon [2]: 132000 M⁻¹ s⁻¹

B20: VRDN-02055 (antibody, V domains shown)
VH: B1 VH with H30T
VL: B1 VL with V99H
Kd [1]: 1.1 nM | koff [1]: 0.000101 s⁻¹ | kon [1]: 91800 M⁻¹ s⁻¹ | Kd [2]: 0.509 nM | koff [2]: 4.92e-05 s⁻¹ | kon [2]: 96600 M⁻¹ s⁻¹

B21: VRDN-02067 (antibody, V domains shown)
VH: B1 VH with H30T, Y99H
VL: B1 VL with P100H
Kd [1]: 0.31 nM | koff [1]: 5.44e-05 s⁻¹ | kon [1]: 175000 M⁻¹ s⁻¹ | Kd [2]: 0.25 nM | koff [2]: 2.75e-05 s⁻¹ | kon [2]: 110000 M⁻¹ s⁻¹

B22: VRDN-02076 (antibody, V domains shown)
VH: B1 VH with H30T, D55H, Y99H
VL: B1 VL with S26H, W101H
Kd [1]: 0.178 nM | koff [1]: 6.76e-05 s⁻¹ | kon [1]: 381000 M⁻¹ s⁻¹ | Kd [2]: 0.21 nM | koff [2]: 2.46e-05 s⁻¹ | kon [2]: 117000 M⁻¹ s⁻¹

B23: VRDN-02008 (antibody, V domains shown)
VH: B1 VH with H30T, Y33H
VL: B1 VL
Kd [1]: 13.1 nM | koff [1]: 0.00143 s⁻¹ | kon [1]: 109000 M⁻¹ s⁻¹ | Kd [2]: 16.6 nM | koff [2]: 0.0206 s⁻¹ | kon [2]: 1.24e+06 M⁻¹ s⁻¹

B24: VRDN-02075 (antibody, V domains shown)
VH: B1 VH with H30T, D55H, Y99H
VL: B1 VL with S26H, P100H
Kd [1]: 0.188 nM | koff [1]: 5.52e-05 s⁻¹ | kon [1]: 294000 M⁻¹ s⁻¹ | Kd [2]: 0.237 nM | koff [2]: 2.76e-05 s⁻¹ | kon [2]: 116000 M⁻¹ s⁻¹

B25: VRDN-02058 (antibody, V domains shown)
VH: B1 VH with H30T
VL: B1 VL with T102H
Kd [1]: 1.18 nM | koff [1]: 9.52e-05 s⁻¹ | kon [1]: 80800 M⁻¹ s⁻¹ | Kd [2]: 0.836 nM | koff [2]: 8.5e-05 s⁻¹ | kon [2]: 102000 M⁻¹ s⁻¹

B26: VRDN-02009 (antibody, V domains shown)
VH: B1 VH with H30T, L34H
VL: B1 VL
Kd [1]: 0.967 nM | koff [1]: 8.4e-05 s⁻¹ | kon [1]: 86900 M⁻¹ s⁻¹ | Kd [2]: 0.442 nM | koff [2]: 3.98e-05 s⁻¹ | kon [2]: 90000 M⁻¹ s⁻¹

B27: VRDN-02056 (antibody, V domains shown)
VH: B1 VH with H30T
VL: B1 VL with P100H
Kd [1]: 1.13 nM | koff [1]: 9.75e-05 s⁻¹ | kon [1]: 86000 M⁻¹ s⁻¹ | Kd [2]: 0.237 nM | koff [2]: 1.98e-05 s⁻¹ | kon [2]: 83500 M⁻¹ s⁻¹

B28: VRDN-02007 (antibody, V domains shown)
VH: B1 VH with H30T, G32H
VL: B1 VL
Kd [1]: 10.2 nM | koff [1]: 0.00188 s⁻¹ | kon [1]: 184000 M⁻¹ s⁻¹ | Kd [2]: 12.8 nM | koff [2]: 0.000743 s⁻¹ | kon [2]: 58000 M⁻¹ s⁻¹

B29: VRDN-02057 (antibody, V domains shown)
VH: B1 VH with H30T
VL: B1 VL with W101H
Kd [1]: 1.4 nM | koff [1]: 0.000165 s⁻¹ | kon [1]: 118000 M⁻¹ s⁻¹ | Kd [2]: 0.72 nM | koff [2]: 6.9e-05 s⁻¹ | kon [2]: 95800 M⁻¹ s⁻¹

B30: VRDN-02010 (antibody, V domains shown)
VH: B1 VH with H30T, W35H
VL: B1 VL
Kd [1]: 7.61 nM | koff [1]: 0.00074 s⁻¹ | kon [1]: 97200 M⁻¹ s⁻¹ | Kd [2]: 6.95 nM | koff [2]: 0.00311 s⁻¹ | kon [2]: 447000 M⁻¹ s⁻¹
